Assay results taken from article PMC10615762.

Biological target: Fusion protein of Nipah virus (F-clamp) (Nipah virus)
Test: SEC

Substance: Fusion protein of Nipah virus (F-clamp)
- stoichiometry N: 3
